The target of series [1] is T1, DNA polymerase alpha catalytic core (p180, hPolα) (Homo sapiens, UniProt P09884 338-1259). The series can be described thus: X-ray crystallography (3.3 Å); crystallized with Mg2+ and dCTP; neither bound in active site (binary complex); 50 mM Bis-Tris pH 6.5, 100 mM NaCl, 5 mM MgCl2, 23 °C; 2 nM labeled duplex, 0.1-16000 nM protein, >30 min. The note with it: protein: recombinant; tags: N-terminal His6-SUMO (His6-SMT) removed by SUMO protease; template 5' overhang 5 nt, one replicative end.
T1 sequence (P09884 338-1259): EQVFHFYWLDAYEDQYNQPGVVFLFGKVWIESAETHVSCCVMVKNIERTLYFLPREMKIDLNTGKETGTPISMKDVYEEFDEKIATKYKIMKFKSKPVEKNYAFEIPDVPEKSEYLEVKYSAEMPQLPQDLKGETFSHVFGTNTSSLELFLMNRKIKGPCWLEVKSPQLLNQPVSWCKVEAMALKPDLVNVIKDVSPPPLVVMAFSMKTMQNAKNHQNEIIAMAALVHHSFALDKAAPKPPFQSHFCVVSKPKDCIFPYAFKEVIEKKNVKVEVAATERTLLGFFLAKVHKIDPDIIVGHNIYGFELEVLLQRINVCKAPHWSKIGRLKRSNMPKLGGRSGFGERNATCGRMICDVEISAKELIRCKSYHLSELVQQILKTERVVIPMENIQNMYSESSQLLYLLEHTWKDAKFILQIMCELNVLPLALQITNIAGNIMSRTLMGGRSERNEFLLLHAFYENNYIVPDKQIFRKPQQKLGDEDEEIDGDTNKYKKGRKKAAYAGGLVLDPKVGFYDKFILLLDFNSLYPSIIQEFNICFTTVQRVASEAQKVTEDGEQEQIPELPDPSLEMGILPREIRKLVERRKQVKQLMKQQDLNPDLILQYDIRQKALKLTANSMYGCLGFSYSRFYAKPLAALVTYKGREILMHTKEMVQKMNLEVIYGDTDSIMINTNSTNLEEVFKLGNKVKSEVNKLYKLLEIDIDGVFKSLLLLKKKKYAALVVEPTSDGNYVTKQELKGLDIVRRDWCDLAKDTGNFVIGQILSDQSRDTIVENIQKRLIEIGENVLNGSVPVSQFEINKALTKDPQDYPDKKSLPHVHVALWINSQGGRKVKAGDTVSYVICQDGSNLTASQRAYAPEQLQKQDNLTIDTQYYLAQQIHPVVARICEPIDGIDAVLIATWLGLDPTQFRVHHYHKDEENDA

Series [2] has as its target T1, DNA polymerase alpha catalytic core …. The series can be described thus: fluorescence anisotropy; 5 mM MgCl2, no dNTP; 50 mM Bis-Tris pH 6.5, 100 mM NaCl, 5 mM MgCl2, 23 °C; 2 nM labeled duplex, 0.1-16000 nM protein, >30 min. The settings on record: protein: recombinant; tags: N-terminal His6-SUMO (His6-SMT) removed by SUMO protease; label: 5' 6-FAM on template; template 5' overhang 20 nt, one replicative end. In general terms: Fluorescence polarisation rises when a labelled molecule tumbles more slowly, as on binding a larger partner.

B1: 13-nt DNA primer/18-nt DNA template (dsDNA)
DNA 1: TAATGGTAGGGGAAGGAT
DNA 2: ATCCTTCCCCTAC
modifications: primer 3'-terminal dideoxycytosine
For the molecule B1, the binding result in series [1] is recorded as “binds”.

B2: 10-nt RNA primer/30-nt DNA template (DNA:RNA)
DNA: CTTAGGATGGAGAAAGGTAAGATGAAGCCG
RNA: CGGCUUCAUC
One may read the Kd as the concentration at which binding is half-saturated. Regarding B2, the equilibrium dissociation constant (Kd) in series [2] was roughly 320 nM.

B3: 10-nt DNA primer/30-nt DNA template (dsDNA)
DNA 1: B2 DNA
DNA 2: CGGCTTCATC
As for B3, in series [2], the Kd was roughly 430 nM.

Values taken from publication PMC4817131, “Human DNA polymerase α in binary complex with a DNA:DNA template-primer”.
